From PMC11685595 (Scientific Reports, 2024)

Tests used:
Test in all cases: other fluorescence titration; intrinsic Trp fluorescence quenching, plate-based (96-well), 0-750 µM peptide added to 8 µM enzyme.Ni(II) (1:2), anaerobic preparation, 10 min at 25 °C, 50 mM Tris pH 7.5, 0.4 M NaCl; λex/λem 280/350 nm; fit to one-site specific binding with or without Hill slope
Conditions in all cases: both partners purified
[1] = target: T1, AtRAP2.12_(2-15) 14-mer peptide (Arabidopsis thaliana, UniProt Q9SSA8 2-15)
T1 construct: RELATED TO AP-2.12 (RAP2.12), Arabidopsis thaliana ERFVII, Cys-initiating residues 2-15; also called RAP2_(2-15); source: synthetic peptide (GL Biochem, China)

[2] = target: T2, AtHRE1_(2-15) 14-mer peptide (Arabidopsis thaliana, UniProt Q8H0T5 2-15)
T2 construct: HRE1, Arabidopsis thaliana ERFVII, Cys-initiating residues 2-15; source: synthetic peptide (GL Biochem, China)

[3] = target: T3, AtVRN2_(2-15) 14-mer peptide (Arabidopsis thaliana, UniProt Q8W5B1 2-15)
T3 construct: Polycomb group protein Vernalisation 2 (VRN2), Arabidopsis thaliana, Cys-initiating residues 2-15; source: synthetic peptide (GL Biochem, China)

[4] = target: T4, AtZPR2_(2-15) 14-mer peptide (Arabidopsis thaliana, UniProt Q9LZX5 2-15)
T4 construct: Little Zipper 2 (ZPR2), Arabidopsis thaliana, Cys-initiating residues 2-15; source: synthetic peptide (GL Biochem, China)

Kd [1]: 258 ± 14.3 µM
Kd [2]: 223 ± 10.3 µM
Kd [3]: 107 ± 29.7 µM
Kd [4]: 692 ± 513 µM
B1: Arabidopsis thaliana Plant Cysteine Oxidase 5, Ni(II)-substituted (AtPCO5.Ni(II)) (enzyme)
chain: not shown
notes: Plant Cysteine Oxidase 5 (AtPCO5), Arabidopsis thaliana; Active-site Fe(II) removed and replaced with Ni(II) (enzyme:metal 1:2)
